# Data as given in patent US20230406950A1 (LYVGEN BIOPHARMA, published 2023).
# Read-outs that look alike come from different tables or passages of the source.
# B1: Ly764 (bispecific antibody, human IgG1, kappa)
# heavy: QVQLVQSGAEVKKPGASVKVSCKASGYTFAGFEMHWVRQAPGQGLEWMGAIDPKTGGTDYNQKFKDRVTMTRDTSISTAYMELSRLRSDDTAVYYCARDLGYFDVWGQGTLVTVSSASTKGPSVFPLAPSSKSTSGGTAALGCLVKDYFPEPVTVSWNSGALTSGVHTFPAVLQSSGLYSLSSVVTVPSSSLGTQTYICNVNHKPSNTKVDKKVEPKSCDKTHTCPPCPAPELLGPSVFLFPPKPKDTLMISRTPEVTCVVVDVSHEDPEVKFNWYVDGVEVHNAKTKPREEQYNSTYRVVSVLTVLHQDWLNGKEYKCKVSNKALPAPIEKTISKAKGQPREPQVYTLPPSREEMTKNQVSLTCLVKGFYPSDIAVEWESNGQPENNYKTTPPVLDSDGSFFLYSKLTVDKSRWQQGNVFSCSVMHEALHNHYTQKSLSLSPGK
# light: DIQMTQSPSSLSASVGDRVTITCRASQDIRSNLNWYQQKPGGAVKLLIYYTSRLHSGVPSRFSGSGSGTDYTLTISSLQPEDFATYFCQQSEKLPRTFGGGTKVEIRRTVAAPSVFIFPPSDEQLKSGTASVVCLLNNFYPREAKVQWKVDNALQSGNSQESVTEQDSKDSTYSLSSTLTLSKADYEKHKVYACEVTHQGLSSPVTKSFNRGECGGGGSGGGGSGGGGSGGGGSDIQMTQSPSSLSASVGDRVTITCRASQDISNYLNWYQQKPGKAPKLLIYYTSRLRSGVPSRFSGSGSGTDFTLTISSLQPEDFATYYCQQGHTLPPTFGQGTKVEIKGGGGSGGGGSGGGGSGGGGSEVQLVQSGAEVKKPGASVKVSCKASGYTFTDSYMSWVRQAPGQGLEWIGDMYPDNGDSSYNQKFRERVTITRDTSTSTAYLELSSLRSEDTAVYYCVLAPRWYFSVWGQGTLVTVSS
# notes: Anti-OX40/CD137: Ly1630 heavy chain
# B2: Ly750 (bispecific antibody, human IgG1, kappa)
# heavy: QVQLQESGPGLVKPSETLSLTCTVSGFSLTSYNVHWIRQPPGKGLEWIGVIWSGVRTDYNSVLKSRVTISVDTSKNQFSLKLSSVTAADTAVYYCARGTYDANYHDVMDAWGQGTMVTVSSASTKGPSVFPLAPSSKSTSGGTAALGCLVKDYFPEPVTVSWNSGALTSGVHTFPAVLQSSGLYSLSSVVTVPSSSLGTQTYICNVNHKPSNTKVDKKVEPKSCDKTHTCPPCPAPELLGPSVFLFPPKPKDTLMISRTPEVTCVVVDVSHEDPEVKFNWYVDGVEVHNAKTKPREEQYNSTYRVVSVLTVLHQDWLNGKEYKCKVSNKALPAPIEKTISKAKGQPREPQVYTLPPSREEMTKNQVSLTCLVKGFYPSDIAVEWESNGQPENNYKTTPPVLDSDGSFFLYSKLTVDKSRWQQGNVFSCSVMHEALHNHYTQKSLSLSPGGGGGSGGGGSGGGGSGGGGSDIQMTQSPSSLSASVGDRVTITCRASQDIRSNLNWYQQKPGGAVKLLIYYTSRLHSGVPSRFSGSGSGTDYTLTISSLQPEDFATYFCQQSEKLPRTFGGGTKVEIRGGGGSGGGGSGGGGSGGGGSQVQLVQSGAEVKKPGASVKVSCKASGYTFAGFEMHWVRQAPGQGLEWMGAIDPKTGGTDYNQKFKDRVTMTRDTSISTAYMELSRLRSDDTAVYYCARDLGYFDVWGQGTLVTVSS
# light: DTVLTQSPATLSLSPGERATLSCRASKSVRTGMHWYQQKPGQAPRLLVYGASNLESGIPARFSGSGSGTDFTLTISSLEPEDFATYFCHQSWNHFTFGQGTKLEIKRTVAAPSVFIFPPSDEQLKSGTASVVCLLNNFYPREAKVQWKVDNALQSGNSQESVTEQDSKDSTYSLSSTLTLSKADYEKHKVYACEVTHQGLSSPVTKSFNRGEC
# notes: Anti-GITR/CD137: TM677 heavy chain fused to Ly1630 scFv (VL-VH)
# B3: Ly751 (bispecific antibody, human IgG1, kappa)
# heavy: QVQLQESGPGLVKPSETLSLTCTVSGFSLTSYNVHWIRQPPGKGLEWIGVIWSGVRTDYNSVLKSRVTISVDTSKNQFSLKLSSVTAADTAVYYCARGTYDANYHDVMDAWGQGTMVTVSSASTKGPSVFPLAPSSKSTSGGTAALGCLVKDYFPEPVTVSWNSGALTSGVHTFPAVLQSSGLYSLSSVVTVPSSSLGTQTYICNVNHKPSNTKVDKKVEPKSCDKTHTCPPCPAPELLGPSVFLFPPKPKDTLMISRTPEVTCVVVDVSHEDPEVKFNWYVDGVEVHNAKTKPREEQYNSTYRVVSVLTVLHQDWLNGKEYKCKVSNKALPAPIEKTISKAKGQPREPQVYTLPPSREEMTKNQVSLTCLVKGFYPSDIAVEWESNGQPENNYKTTPPVLDSDGSFFLYSKLTVDKSRWQQGNVFSCSVMHEALHNHYTQKSLSLSPGGGGGSGGGGSGGGGSGGGGSQVQLVQSGAEVKKPGASVKVSCKASGYTFAGFEMHWVRQAPGQGLEWMGAIDPKTGGTDYNQKFKDRVTMTRDTSISTAYMELSRLRSDDTAVYYCARDLGYFDVWGQGTLVTVSSGGGGSGGGGSGGGGSGGGGSDIQMTQSPSSLSASVGDRVTITCRASQDIRSNLNWYQQKPGGAVKLLIYYTSRLHSGVPSRFSGSGSGTDYTLTISSLQPEDFATYFCQQSEKLPRTFGGGTKVEIR
# light: B2 light
# notes: Anti-GITR/CD137: TM677 heavy chain fused to Ly1630 scFv (VH-VL); TM677 light chain
# B4: Ly762 (bispecific antibody, human IgG1, kappa)
# heavy: QVQLVQSGAEVKKPGASVKVSCKASGYTFAGFEMHWVRQAPGQGLEWMGAIDPKTGGTDYNQKFKDRVTMTRDTSISTAYMELSRLRSDDTAVYYCARDLGYFDVWGQGTLVTVSSASTKGPSVFPLAPSSKSTSGGTAALGCLVKDYFPEPVTVSWNSGALTSGVHTFPAVLQSSGLYSLSSVVTVPSSSLGTQTYICNVNHKPSNTKVDKKVEPKSCDKTHTCPPCPAPELLGPSVFLFPPKPKDTLMISRTPEVTCVVVDVSHEDPEVKFNWYVDGVEVHNAKTKPREEQYNSTYRVVSVLTVLHQDWLNGKEYKCKVSNKALPAPIEKTISKAKGQPREPQVYTLPPSREEMTKNQVSLTCLVKGFYPSDIAVEWESNGQPENNYKTTPPVLDSDGSFFLYSKLTVDKSRWQQGNVFSCSVMHEALHNHYTQKSLSLSPGGGGGSGGGGSGGGGSGGGGSDIQMTQSPSSLSASVGDRVTITCRASQDISNYLNWYQQKPGKAPKLLIYYTSRLRSGVPSRFSGSGSGTDFTLTISSLQPEDFATYYCQQGHTLPPTFGQGTKVEIKGGGGSGGGGSGGGGSGGGGSEVQLVQSGAEVKKPGASVKVSCKASGYTFTDSYMSWVRQAPGQGLEWIGDMYPDNGDSSYNQKFRERVTITRDTSTSTAYLELSSLRSEDTAVYYCVLAPRWYFSVWGQGTLVTVSS
# light: DIQMTQSPSSLSASVGDRVTITCRASQDIRSNLNWYQQKPGGAVKLLIYYTSRLHSGVPSRFSGSGSGTDYTLTISSLQPEDFATYFCQQSEKLPRTFGGGTKVEIRRTVAAPSVFIFPPSDEQLKSGTASVVCLLNNFYPREAKVQWKVDNALQSGNSQESVTEQDSKDSTYSLSSTLTLSKADYEKHKVYACEVTHQGLSSPVTKSFNRGEC
# notes: Ly1630 light chain
# B5: Ly763 (bispecific antibody, human IgG1, kappa)
# heavy: QVQLVQSGAEVKKPGASVKVSCKASGYTFAGFEMHWVRQAPGQGLEWMGAIDPKTGGTDYNQKFKDRVTMTRDTSISTAYMELSRLRSDDTAVYYCARDLGYFDVWGQGTLVTVSSASTKGPSVFPLAPSSKSTSGGTAALGCLVKDYFPEPVTVSWNSGALTSGVHTFPAVLQSSGLYSLSSVVTVPSSSLGTQTYICNVNHKPSNTKVDKKVEPKSCDKTHTCPPCPAPELLGPSVFLFPPKPKDTLMISRTPEVTCVVVDVSHEDPEVKFNWYVDGVEVHNAKTKPREEQYNSTYRVVSVLTVLHQDWLNGKEYKCKVSNKALPAPIEKTISKAKGQPREPQVYTLPPSREEMTKNQVSLTCLVKGFYPSDIAVEWESNGQPENNYKTTPPVLDSDGSFFLYSKLTVDKSRWQQGNVFSCSVMHEALHNHYTQKSLSLSPGGGGGSGGGGSGGGGSGGGGSEVQLVQSGAEVKKPGASVKVSCKASGYTFTDSYMSWVRQAPGQGLEWIGDMYPDNGDSSYNQKFRERVTITRDTSTSTAYLELSSLRSEDTAVYYCVLAPRWYFSVWGQGTLVTVSSGGGGSGGGGSGGGGSGGGGSDIQMTQSPSSLSASVGDRVTITCRASQDISNYLNWYQQKPGKAPKLLIYYTSRLRSGVPSRFSGSGSGTDFTLTISSLQPEDFATYYCQQGHTLPPTFGQGTKVEIK
# light: B4 light
# notes: Ly1630 light chain
# How the values were obtained:
# [1] = molecular target: T1, human OX40 expressed on CHO cells (human, UniProt P43489 29-277); test: FACS on CHO cells expressing human OX40 (MFI)
# T1 construct: whole, on cells
# T1 sequence (looked up): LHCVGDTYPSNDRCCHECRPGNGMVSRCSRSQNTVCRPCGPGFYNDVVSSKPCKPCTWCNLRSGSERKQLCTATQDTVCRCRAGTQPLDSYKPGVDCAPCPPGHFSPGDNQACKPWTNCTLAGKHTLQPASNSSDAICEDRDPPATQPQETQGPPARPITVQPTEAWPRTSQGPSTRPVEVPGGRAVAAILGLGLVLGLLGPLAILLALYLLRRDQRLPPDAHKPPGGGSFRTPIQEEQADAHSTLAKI
# Method: (§1) Anti-OX40/CD137 bi-specific antibodies were analyzed by FACS for their binding properties to human OX40 and/or human CD137 expressed on CHO cells. Briefly, cultured cells were harvested, counted and cell viability was evaluated using the Trypan Blue exclusion method. Viable cells were then adjusted to 2×10⁶ cells per mL in PBS containing 2% BSA. 100 μL of this cell suspension were further aliquoted per well into a V-bottom 96-well plate. […] After incubation for 2 hours at 4° C., cells were centrifuged (3 min, 1000×g), washed with 250 μL/well BSA-containing FACS Stain Buffer, resuspended and incubated for an additional 1 hour at 4° C. with 100 μL/well fluorochrome-conjugated anti-IgG antibody for detection of the bisepecific antibody. Cells were then washed with 250 μL/well BSA-containing FACS Stain Buffer, resuspended in 100 μL/well FACS Stain Buffer, acquired and analyzed using a FACS machine. Binding of the bispecific antibodies to human OX40 or human CD137 expressing CHO cells were evaluated and the mean fluorescence intensity is plotted in histograms or dot plots.
# [2] = molecular target: T2, human CD137 expressed on cells (human, UniProt Q07011 24-255); test: FACS on CHO cells expressing human CD137 (MFI)
# T2 construct: whole, on cells; also called 4-1BB; TNFRSF9
# Method: as §1
# [3] = molecular target: T2, human CD137 expressed on cells; test: FACS on CHO cells expressing human CD137 (MFI); remark: listed apart in the source
# Method: as §1, with “Anti-GITR/CD137” for “Anti-OX40/CD137”, “GITR” for “OX40”, “1000× g),” for “1000×g),”
# [4] = molecular target: T3, human GITR expressed on cells (human, UniProt Q9Y5U5 26-241); test: flow cytometry (FACS), MFI, CHO cells expressing human GITR
# T3 construct: whole, on cells; also called TNFRSF18; CD357
# T3 sequence (looked up): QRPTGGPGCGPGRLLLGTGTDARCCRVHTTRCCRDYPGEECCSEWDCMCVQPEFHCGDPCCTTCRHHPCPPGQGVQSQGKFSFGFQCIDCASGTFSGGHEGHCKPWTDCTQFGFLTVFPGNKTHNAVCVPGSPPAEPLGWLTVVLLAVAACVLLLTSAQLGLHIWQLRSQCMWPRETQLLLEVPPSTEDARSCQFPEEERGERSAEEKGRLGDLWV
# Method: as §1, with “Anti-GITR/CD137” for “Anti-OX40/CD137”, “GITR” for “OX40”, “1000× g),” for “1000×g),”
# T2 sequence (Q07011 24-255): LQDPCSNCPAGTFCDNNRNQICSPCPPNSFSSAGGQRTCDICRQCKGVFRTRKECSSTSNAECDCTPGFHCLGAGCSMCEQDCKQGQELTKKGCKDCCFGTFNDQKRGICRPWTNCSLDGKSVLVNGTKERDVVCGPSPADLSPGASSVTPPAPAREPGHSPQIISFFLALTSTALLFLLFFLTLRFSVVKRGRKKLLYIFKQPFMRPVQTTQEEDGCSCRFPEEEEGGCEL
Binder,EC50 (read off the curve) [1],EC50 (read off the curve) [2],EC50 (read off the curve) [3],binding result [4],binding result [1]
B1,~0.9 µg/mL,~0.2 µg/mL,,,
B2,,,~0.2 µg/mL,binds,
B3,,,~0.2 µg/mL,binds,
B4,,~0.1 µg/mL,,,binds
B5,,~0.1 µg/mL,,,binds
